From publication PMC8047137, “Smyd1 Orchestrates Early Heart Development Through Positive and Negative Gene Regulation” (Frontiers in Cell and Developmental Biology, 2021)

Target: V5-tagged ASH2L (absent small homeotic-2-like protein) (mouse, UniProt Q91X20 1-623)
Assay: cell-based or functional assay

Chain of V5-tagged ASH2L (absent small homeotic-2-like protein) (Q91X20 whole entry): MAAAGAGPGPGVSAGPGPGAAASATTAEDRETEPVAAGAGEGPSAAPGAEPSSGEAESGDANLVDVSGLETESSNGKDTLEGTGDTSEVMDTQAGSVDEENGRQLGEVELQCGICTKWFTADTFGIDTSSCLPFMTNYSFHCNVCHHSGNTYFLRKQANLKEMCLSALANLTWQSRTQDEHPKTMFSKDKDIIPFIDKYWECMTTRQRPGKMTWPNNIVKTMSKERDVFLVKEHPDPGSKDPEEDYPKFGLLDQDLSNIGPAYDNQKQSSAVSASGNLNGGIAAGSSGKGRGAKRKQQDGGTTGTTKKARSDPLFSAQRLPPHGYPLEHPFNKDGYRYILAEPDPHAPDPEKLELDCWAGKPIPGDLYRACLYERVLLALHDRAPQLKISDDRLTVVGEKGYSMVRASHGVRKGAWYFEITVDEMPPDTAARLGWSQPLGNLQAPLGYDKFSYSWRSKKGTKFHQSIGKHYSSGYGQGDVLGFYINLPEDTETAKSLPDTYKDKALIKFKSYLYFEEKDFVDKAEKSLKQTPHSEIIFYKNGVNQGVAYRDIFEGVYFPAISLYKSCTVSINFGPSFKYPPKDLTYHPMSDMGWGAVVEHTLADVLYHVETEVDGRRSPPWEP

B1: Myc-tagged Smyd1 (SET and MYND domain-containing protein 1) (natural protein, mouse, UniProt P97443 1-490, looked up)
chain: MTIGSMENVEVFTSEGKGRGLKATKEFWAADVIFAERAYSAVVFDSLINFVCHTCFKRQEKLHRCGQCKFAHYCDRTCQKDAWLNHKNECAAIKKYGKVPNENIRLAARIMWRVEREGTGLTEGCLVSVDDLQNHVEHFGEEEQKELRVDVDTFLQYWPPQSQQFSMQYISHIFGVINCNGFTLSDQRGLQAVGVGIFPNLGLVNHDCWPNCTVIFNNGNHEAVKSMFHTQMRIELRALGKISEGEELTVSYIDFLHLSEERRRQLKKQYYFDCSCEHCQKGLKDDLFLAAKEDPKPSQEVVKEMIQFSKDTLEKIDKARSEGLYHEVVKLCRECLEKQEPVFADTNLYVLRLLSIASEVLSYLQAYEEASHYARRMVDGYMKLYHHNNAQLGMAVMRAGLTNWHAGHIEVGHGMICKAYAILLVTHGPSHPITKDLEAMRMQTEMELRMFRQNEFMYHKMREAALNNQPMQVMAEPSNEPAPALFHKKQ
  Isl1 promoter (pLG3-Isl1-WT) luciferase reporter activity in C2C12 cells, ASH2L overexpressed with Smyd1: 25 fold above basal level
